Reference: patent US6355473
Each block holds one molecule with its values, some of them ahead of it.

Assays:
Test in all cases: cell-based or functional assay
[1] = molecular target: human melanocortin receptor 4 (hMCR4), native form (human) (UniProt P32245)
[2] = molecular target: All the receptor forms tested (hNocR, Ste2-hNocR, Inv-hNocR, αF-hNocR) in the stp22 strains
αF-hSSTR3 (yeast; human) = molecular target: αF-hSSTR3 (yeast; human)
αF-hSSTR3 (yeast; human), sequence (P01149 other isoform, or with tags, fused parts or gaps): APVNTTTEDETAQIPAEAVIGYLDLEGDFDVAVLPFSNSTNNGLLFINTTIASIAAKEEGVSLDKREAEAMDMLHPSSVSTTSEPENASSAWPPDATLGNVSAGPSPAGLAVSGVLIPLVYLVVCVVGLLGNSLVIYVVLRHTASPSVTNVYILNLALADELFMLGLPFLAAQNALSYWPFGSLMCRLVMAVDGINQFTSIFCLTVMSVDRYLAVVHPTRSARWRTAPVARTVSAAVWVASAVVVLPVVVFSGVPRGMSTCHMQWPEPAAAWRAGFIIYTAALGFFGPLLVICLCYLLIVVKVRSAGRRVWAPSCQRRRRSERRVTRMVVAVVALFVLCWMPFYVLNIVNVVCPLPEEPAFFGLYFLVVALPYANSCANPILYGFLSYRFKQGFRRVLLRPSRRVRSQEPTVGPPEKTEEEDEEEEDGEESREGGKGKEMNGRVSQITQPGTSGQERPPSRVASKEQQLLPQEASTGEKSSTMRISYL

UniProt P32245, sequence (P32245 whole entry): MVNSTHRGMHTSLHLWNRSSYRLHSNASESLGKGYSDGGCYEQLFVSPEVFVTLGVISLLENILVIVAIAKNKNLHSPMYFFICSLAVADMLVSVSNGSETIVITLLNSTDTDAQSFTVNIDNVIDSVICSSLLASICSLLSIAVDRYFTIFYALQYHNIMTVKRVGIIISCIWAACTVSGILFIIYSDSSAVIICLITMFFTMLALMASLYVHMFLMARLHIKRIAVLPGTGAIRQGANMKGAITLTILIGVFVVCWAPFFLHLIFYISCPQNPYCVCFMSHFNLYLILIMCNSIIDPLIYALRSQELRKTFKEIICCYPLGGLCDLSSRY

Specific ligand-induced levels of β-galactosidase activity (FUS1-lacZ), stp22 strain compared with wild type [1]: 2 fold
Molecule: NDP-α-MSH (peptide)

maximal increase in the levels of β-galactosidase activity (FUS1-lacZ induction), stp22 strains [2]: 10 to 40 fold
Molecule: FGGFTGARKSARKLANQ (peptide, UniProt Q13519 130-146, looked up) [nociceptin]

decrease of EC50 of FUS1-lacZ induction, stp22 strain compared with wild type (αF-hSSTR3 (yeast; human)): 50%
levels of FUS1-lacZ induction (β-galactosidase activity), stp22 strain compared with wild type (αF-hSSTR3 (yeast; human)): 2 fold
Molecule: AGCKNFFWKTFTSC (peptide, UniProt P61278 103-116, looked up) [Somatostatin-14]
